Measured values: the supplement of paper PMC11780869

System: Bacillus subtilis
Experiment: cleaved RNA product abundance (RNA/gDNA barcode ratio) relative to median wild-type variant (ratio to wild type); higher = more accumulation of the downstream cleavage product
How it was run: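 In LB at 37°C, B. subtilis cultures went from OD600 0.0003 to 0.3. Their chromosomes held barcoded reporter mRNAs, truncated aprE or tetM, with RNase Y cleavage-site windows mutagenized via oligos at a 9% error rate. Cleaved RNA, chosen by gel, was reverse transcribed and barcode-sequenced alongside genomic DNA barcodes with UMI collapsing, giving a per-construct RNA:gDNA ratio scaled to the median construct with the unmutated site. This scaled ratio is termed cleaved product abundance.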

[1] = experiment (reporter, strain, medium): exp 2b: truncated aprE reporter, strain BJT200, cleavage site: cggR-gapA (positions -7 to +36 mutated)
[2] = experiment (reporter, strain, medium): exp 4a: truncated aprE reporter, strain BJT201 with 2% xylose (RNase J1 expressed), cleavage site: cggR-gapA (positions -7 to +36 mutated)
[3] = experiment (reporter, strain, medium): exp 8a: truncated aprE reporter, strain BJT201 with 2% xylose (RNase J1 expressed), cleavage site: glnRA (positions -5 to +31 mutated)
[4] = experiment (reporter, strain, medium): exp 6: tetM reporter, strain 168, cleavage site: cggR-gapA (positions -7 to +36 mutated)

Sequence | cleaved RNA product abundance [2] | cleaved RNA product abundance [3] | also measured
ACAGACGAAGGAGCCGCAAAGAAGTTATTAAGGGATGATTAATCCCTCAAAATAAATATCTCTCACTTATTTAAA | 0.282 | – | cleaved RNA product abundance [1]: 0.294
CGACATGTCCCGCTTCTTTCATTAATCCGTTAGCAACTGTTTTGCTATTTACATTTAACTTTTAAGAGGAGGAAT | – | 0.208 | –
ACAGACGAAGGAGCCGCAAAGAAGTTATTAAGGGATCAATAATCCCTTAATATAAATATCTCTCACTTATTTAAA | 0.486 | – | cleaved RNA product abundance [1]: 1.02
ACAGACGAAGGAGCCGCAAAGAAGTTATTAAGAGATGAATAATCCCTCAATATAAAGATCTCTCACTTATTTAAA | 0.186 | – | –
CGACATGTCCCGCTTCTTTCATTAATATGTTAGCAACTGTTTTGCTATATACATTTACCTTTTAAGAGGAGGAAT | – | 0.819 | –
ACAGACGAAGGAGCCGCAAAGAAGTTCTTAAGGTATGAATAATCCCTCAATATAAATATCTCTCACTTATTTAAA | 0.145 | – | –
ACAGACGAAGGAGCCGCAAAGAAGTTATTAAGGGCTGAAAAATCCCTCAATATAAATATCTCTCACTTATTTAAA | – | – | cleaved RNA product abundance [1]: 0.212
CGACATGTCCCGCTTCTTTCATTAATCCGTTAGCAACTGTTTCACTATATACATTTACCTTTTAAGAGGAGGAAT | – | 0.694 | –
ACAGACGAAGGAGCCGCAAAGAAGTTATAATGGGATGAATAATCCCTCAATATAAATATCTCTCACTTATTTAAA | 0.293 | – | cleaved RNA product abundance [1]: 0.29
CGACATGTCCCGCTTCTTTCATTAATCCGTTAGCAACTGTTTTGCTATATACATCTACATTTTAAGAGGAGGAAT | – | 1.27 | –
ACAGACGAAGGAGCCGCTAAGAAGCTATTAAGGGATGAATAATCCCTCAATATAAATATCTCTCACTTATTTAAA | 0.52 | – | –
CGACATGTCCCGCTTCTTTCATTAATCCGTTAGAAACTGATTTGCTATATACATTTACCTTTTAAGAGGAGGAAT | – | 0.194 | –
CGACATGTCCCGCTTCTTTCATTAATCCGTTAGCAACTGTTTTGCTATATAAAATTACCTTTTAAGAGGAGGAAT | – | 0.606 | –
CGACATGTCCCGCTTCTTTCATTAATCCGTTTGCAACTGTTTTGCTATATACATTTACATTTTAAGAGGAGGAAT | – | 0.626 | –
ACAGACGAAGGAGCCGCAAAGAACTTATTAAGGAATGAATAATCCCTCAATATAAATATCTCTCACTTATTTAAA | 0.117 | – | –
ACAGACGAAGGAGCCGCAAAGAAGTTATTAAGGGATGAATAAACCCTCAAAATAAATATCTCTCACTTATTTAAA | 0.198 | – | cleaved RNA product abundance [1]: 0.196
ACAGACGAAGGAGCCGCAAAGAAGTTATTAAGGGATGAATACTCCCTCAATATAAATATCTCTCACTTATTTAAA | 0.732 | – | cleaved RNA product abundance [1]: 0.565; cleaved RNA product abundance [4]: 0.566
ACAGACGAAGGAGCCGCAATGAAGTTTTTAAGGGATGAATAATCCCTCAATATAAATATCTCTCACTTATTTAAA | 0.578 | – | –
ACAGACGAAGGAGCCGCGAAGAAGTTATTAAGGGATGAATTATCCCTCAATATAAATATCTCTCACTTATTTAAA | 0.548 | – | –
CGACATGTCCCGCTTCTTTCATTAATCCGTTAGCAACTGTTCTGCTATATACATTTACTTTTTAAGAGGAGGAAT | – | 0.495 | –

Sequence | cleaved RNA product abundance [2] | cleaved RNA product abundance [3] | also measured
CGACATGTCCCGCTTCTTTCATTAATCCGTTAACTACTGTTTTGCTATATACATTTACCTTTTAAGAGGAGGAAT | – | 0.265 | –
CGACATGTCCCGCTTCTTTCATTAATCCGTTAGAAACTGTTTTGCTATATACATTTACCTTTTAAGAGGAGGAAT | – | 0.292 | –
CGACATGTCCCGCTTCTTTCATTATTCCGTTAACAACTGTTTTGCTATATACATTTACCTTTTAAGAGGAGGAAT | – | 0.312 | –
ACAGACGAAGGAGCCGCAAAGAAGTTATTATGGGATGAATAATCCCTAAATATAAATATCTCTCACTTATTTAAA | 0.514 | – | –
CGACATGTCCCGCTTCTTTCATTACTCCGTTAGCAACTGTTTTACTATATACATTTACCTTTTAAGAGGAGGAAT | – | 0.792 | –
ACAGACGAAGGAGCCGCAAAGAAGTTATTAAGGGATGAATAATGCCTCATTATAAATATCTCTCACTTATTTAAA | 0.127 | – | –
CGACATGTCCCGCTTCTTTCATTAATACGTTAGCAACTGATTTGCTATATACATTTACCTTTTAAGAGGAGGAAT | – | 1.24 | –
ACAGACGAAGGAGCCGCAAAGAAGTTAATAAGGGATGAATAATCCATCAATATAAATATCTCTCACTTATTTAAA | 0.224 | – | cleaved RNA product abundance [1]: 0.166
ACAGACGAAGGAGCCGCAAAGAAGTTATTAAGGGATGAATAATCCTTCGATATAAATATCTCTCACTTATTTAAA | 0.257 | – | –
CGACATGTCCCGCTTCTTTCATTAATCCGTTAGCAACTGTTTTGCTATATACATTACCCTTTTAAGAGGAGGAAT | – | 0.597 | –
ACAGACGAAGGAGCCGCAAACAAGTTATTAAGGGATGAATAATCCCTTAATATAAATATCTCTCACTTATTTAAA | 0.287 | – | –
CGACATGTCCCGCTTCTTTCATTAATCCGTTAGCAACTGTTTAGCTATATACATTTACATTTTAAGAGGAGGAAT | – | 0.588 | –
ACAGACGAAGGAGCCGCAAAGAAGTGATTAAGGGATGCATAATCCCTCAATATAAATATCTCTCACTTATTTAAA | 0.51 | – | –
ACAGACGAAGGAGCCGCAAAGAAGTTATTAAGGTATGAATAACCCCTCAATATAAATATCTCTCACTTATTTAAA | 0.0618 | – | cleaved RNA product abundance [1]: 0.0833
ACAGACGAAGGAGCCGCAAAGAAGTTATTAAGGTATGAATAATCCCTCAATAAAAATATCTCTCACTTATTTAAA | 0.0613 | – | cleaved RNA product abundance [1]: 0.119
CGACATGTCCCGCTTCTTTCATTAATCCGTTATCAACTGTTTTGCTATATTCATTTACCTTTTAAGAGGAGGAAT | – | 0.246 | –
ACAGACGAAGGAGCCGCAAATAAGTTATTAAGGGATCAATAATCCCTCAATATAAATATCTCTCACTTATTTAAA | 0.721 | – | cleaved RNA product abundance [4]: 0.865
ACAGACGAAGGAGCCGCAAAGAAGTTACAAAGGGATGAATAATCCCACAATATAAATATCTCTCACTTATTTAAA | 0.157 | – | –
ACAGACGAAGGAGCCGCATAGAAGTTATAAAGGGATGAATAATCCCTCAATATAAATATCTCTCACTTATTTAAA | 0.339 | – | –
ACAGACGAAGGAGCCGCAAATAAGTTATTAAGGGATGAATAATCCCTAAATATAAATATCTCTCACTTATTTAAA | 0.865 | – | cleaved RNA product abundance [1]: 0.668

Sequence | cleaved RNA product abundance [2] | cleaved RNA product abundance [3] | also measured
ACAGACGAAGGAGCCGCAAAGAAGTTATTAAGGGATGAATCATCCCCCAATATAAATATCTCTCACTTATTTAAA | 0.296 | – | –
ACAGACGAAGGAGCCGCAATGAAGTTATTAAGGGATGAATAATCCATCAATATAAATATCTCTCACTTATTTAAA | 0.251 | – | –
CGACATGTCCCGCTTCTTTCATTAATCCGTAAGCAACTGTTTTGCTATATACATATACCTTTTAAGAGGAGGAAT | – | 0.551 | –
ACAGACGAAGGAGCCGCAAAGAAGTTATTAAGGGATGAATAATCACTCAATATACATATCTCTCACTTATTTAAA | 0.109 | – | –
CGACATGTCCCGCTTCTTTCATTAATTCGTTAGCAAATGTTTTGCAATATACATTTACCTTTTAAGAGGAGGAAT | – | 0.563 | –
ACAGACGAAGGAGCCGCAAAGCAGTTATTAAGGGATGAATAATCCATCAATATAAATATCTCTCACTTATTTAAA | 0.172 | – | –
CGACATGTCCCGCTTCTTTCATTAATCCATTAGCAACTGTTTTGCTAAATACATTTACCTTTTAAGAGGAGGAAT | – | 0.47 | –
CGACATGTCCCGCTTCTTTCATTAATTCGTTAGCAACTGTTTTGCTATCTACATTTACCTTTTAAGAGGAGGAAT | – | 0.0856 | –
CGACATGTCCCGCTTCTTTCATTAATCCGTTAGCAACTGTATTGCTATATACATTTACCCTTTAAGAGGAGGAAT | – | 1.1 | –
ACAGACGAAGGAGCCGCAAAGAAGTTTTTAATGGATGAATAATCCCTCAATATAAATATCTCTCACTTATTTAAA | 0.175 | – | –
ACAGACGAAGGAGCCGCAAAGAAGTTACTAAGGGATTAATAATCCCTCAATATAAATATCTCTCACTTATTTAAA | 0.299 | – | cleaved RNA product abundance [1]: 0.169
ACAGACGAAGGAGCCGCAAAGAAGTTATTAAGGGATGAATGATCCCTAAATATAAATATCTCTCACTTATTTAAA | 0.488 | – | –
ACAGACGAAGGAGCCGCAAAGAAGTAATTAAGGGATGAATAATCCCTCAATATAAATATCTCTCACTTATTTAAA | 0.333 | – | cleaved RNA product abundance [1]: 0.241; cleaved RNA product abundance [4]: 0.32
CGACATGTCCCGCTTCTTTCATTAATCCTTTAGCAACTGTTTTGCTATATATATTTACCTTTTAAGAGGAGGAAT | – | 0.909 | –
CGACATGTCCCGCTTCTTTCATTAATCCGTTAGTAACTGTTTTGCTATAAACATTTACCTTTTAAGAGGAGGAAT | – | 0.389 | –
CGACATGTCCCGCTTCTTTCATTAATCCTTTAGCAACTGTTTTACTATATACATTTACCTTTTAAGAGGAGGAAT | – | 0.513 | –
ACAGACGAAGGAGCCGCAAAGAAGTTATTATGGGATGATTAATCCCTCAATATAAATATCTCTCACTTATTTAAA | 0.414 | – | –
ACAGACGAAGGAGCCGCATAGAAGTTATTAAGGCATGAATAATCCCTCAATATAAATATCTCTCACTTATTTAAA | 0.13 | – | cleaved RNA product abundance [1]: 0.0988
ACAGACGAAGGAGCCGCAAAGAAGTTATTAAGGGTTGAACAATCCCTCAATATAAATATCTCTCACTTATTTAAA | – | – | cleaved RNA product abundance [1]: 0.387
ACAGACGAAGGAGCCGCAAAGAAGTTATTAAGGGATGAATAATCCCTCAATATGAATATCTCTCACTTATTTAAA | 0.102 | – | cleaved RNA product abundance [1]: 0.153; cleaved RNA product abundance [4]: 0.0685
